Laboratory results taken from patent US20110165156A1 (published 2011).

Key:
[1] = target: CSF-1R of cynomolgous monocytes (cynomolgous); assay: cell-based or functional assay
[2] = target: T1, human CSF-1R fragment D1-D3 (human, UniProt P07333 20-311); assay: SPR Biacore T100, 37 C, antibody captured, D1-D3 single cycle kinetics
T1 construct: Subcloned into the pCMV-presS-HisAvitag expression vector; not shown: His-Avi tag of the vector pCMV-presS-HisAvitag
Procedure: Antibodies against CSF-1R were captured via amine coupled capture molecules. Using the single cycle kinetics five increasing concentrations of human CSF-1R fragment D1-D3 (SEQ ID NO: 66) were injected. Human CSF-1R fragment D1-D3 was subcloned into pCMV-presS-HisAvitag expression vector.
Single Cycle Kinetics was measured at a flow rate of 30 μL/min by five consecutive injections of the analyte with concentrations, c=7.8, 31.25, 125 500 and 2000 nM, without regeneration. Each injection was 30 seconds long and followed by a dissociation phase of 120 Seconds for the first four injections, and finally 1200 seconds for the highest concentration (=last injection).
Kinetic parameters were calculated by using the usual double referencing (control reference: binding of analyte to capture molecule; Flow Cell: subdomain CSF-1R concentration “0” as Blank) and calculation with model ‘titration kinetics 1:1 binding with draft’.

T1 sequence (P07333 20-311): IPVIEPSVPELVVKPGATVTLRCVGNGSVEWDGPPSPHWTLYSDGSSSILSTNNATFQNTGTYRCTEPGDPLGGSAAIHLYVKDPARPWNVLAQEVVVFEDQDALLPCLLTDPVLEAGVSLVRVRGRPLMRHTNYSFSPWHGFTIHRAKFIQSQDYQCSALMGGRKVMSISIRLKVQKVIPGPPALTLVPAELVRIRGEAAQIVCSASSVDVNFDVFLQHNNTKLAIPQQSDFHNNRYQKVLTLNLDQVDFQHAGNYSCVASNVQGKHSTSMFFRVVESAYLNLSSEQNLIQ

| Binder | % inhibition (of survival) = (100% - % survival) [1] [%] | % survival (cynomolgous monocytes, 5 µg/ml antibody) [1] [%] | binding result [2] |
| --- | --- | --- | --- |
| Mab 2F11 (antibody, V domains shown, Murine monoclonal antibody from a hybridoma; also called muMab 2F11) VH: QVQLKESGPGLVAPSQSLSITCTVSGFSLTTYDISWIRQSPGKGLEWLGVIWTDGGTNYNSPFMSRLSIRKDNSKSQVFLKMNRLQTDDTAIYYCVRDQRLYFDVWGAGTTVTVSS VL: NIVMTQSPKSMSMSVGERVTLNCKASEDVNTYVSWYQQQPEQSPKLLIYGASNRYTGVPDRFTGGGSTTDFTLTISSVQAEDLADYFCGQSFSYPTFGTGTKLEIK | 96 | 4 | no binding (tested: 2000 nM) |
| Mab 2E10 (antibody, V domains shown, Murine monoclonal antibody from a hybridoma) VH: QVQLKESGPGLVAPSKSLSITCTVSGSSLDSFDISWIRQSPGKGLEWLGVIWTGGGTNYNSGFMSRLRITKDNSKSQVLLKMNSLQSDDTAIYYCVRDPRLYFDVWGAGTTVTVSS VL: NIVMTQSPKSMSMSVGERVTLSCKASEDVVTYVSWYQQKPDQSPKLLIYGASNRYTGVPDRFTGSGSATDFTLTISSVQAEDLADYYCGQTFSYPTFGTGTKLEIK | 83 | 17 | no binding (tested: 2000 nM) |
| Mab 1G10 (antibody, V domains shown, Murine monoclonal antibody from a hybridoma) VH: RVQLKESGPGLVAPSQSLSITCTVSGFSLTSYDISWIRQSPGKGLEWLGVIWSGGGTNYNSPFMSRLRISKDDSRSQVFLKVNRLQTDDTAIYYCVRDLRLYFDVWGAGTTVTVSS VL: KIVMTQSPKSMSVSVGERVSLSCKASEDVGTYVSWYQQKPEQSPKLLIYGSSNRYTGVPDRFTGSGSATDFTLTISSVQAEDLADYSCGQSFTYPTFGTGTKLEIK | 98 | 2 | no binding (tested: 2000 nM) |
| Mab 2H7 (antibody, V domains shown, Murine monoclonal antibody from a hybridoma) VH: QVQLKESGPGLVAPSKSLSITCTVSGSSLDSFDISWIRQPPGKGLEWLGVIWTGGGTNYNSGFMSRLRISKDNSKSQVFLKMSSLQSDDTAIYYCVRDPRLYFDVWGAGTTVTVSS VL: NIVMTQSPKSMSMSVGERVTLSCKASEDVVTYVSWYQQKPEQSPKLLIYGASNRYTGVPDRFTGSGSATDFTLTISSIQAEDLADYYCGQTFSYPTFGTGTKLEIK | 92 | 8 |  |
